Values quoted from earlier work, collected in US11130803B2, “Isoform-selective TGFβ1 inhibitors and use thereof” (Scholar Rock, Inc., priority 2018, dated 2021).

System: mdx mice
Conditions: cited from earlier work

B1: decorin: proteoglycan abundant in skeletal muscle that inhibits TGFβ activity (protein, UniProt P07585 31-359, looked up)
Decorin: DEASGIGPEVPDDRDFEPSLGPVCPFRCQCHLRVVQCSDLGLDKVPKDLPPDTTLLDLQNNKITEIKDGDFKNLKNLHALILVNNKISKVSPGAFTPLVKLERLYLSKNQLKELPEKMPKTLQELRAHENEITKVRKVTFNGLNQMIVIELGTNPLKSSGIENGAFQGMKKLSYIRIADTNITSIPQGLPPSLTELHLDGNKISRVDAASLKGLNNLAKLGLSFNSISAVDNGSLANTPHLRELHLDNNKLTRVPGGLAEHKYIQVVYLHNNNISVVGSSDFCPPGHNTKKASYSGVSLFSNPVQYWEIQPSTFRCVYVRSAIQLGNYK
  muscle fibrosis: decreases muscle fibrosis
